# According to the supplement of paper PMC10126150:
# ± gives the standard deviation of the averaged measurements.
# Tested on: ATP
# Experiment: switch fluorescence ratio, 500 uM ATP over buffer (Cy3 cluster intensity, sum of 5 cycles each) (fold (ratio)); higher = stronger signal-on switching upon ATP binding; sequences stand for … in TCGTCGGCAGCGTCAGATGTGTATAAGAGACAGTTTTTTTTTTTTTTTTTTTTTTTTT…TC
# Conditions: aptamer strand: ATP DNA aptamer (quencher-CACCTGGGGGAGTATTGCGGAGGAAGG + anchor), 100 nM annealed; ATP concentration: 500 uM
# Method in brief: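 Clusters with intensities outside 100-1000 RFU were excluded. The remaining Cy3-labelled switching-strand clusters on a modified Illumina MiSeq flow-cell had been annealed to 100 nM quencher-labelled ATP aptamer and imaged in selection buffer, then after 15 min with 500 uM ATP at 22 °C, for five cycles separated by NaOH stripping and re-annealing. The fluorescence ratio, averaged per switch-domain sequence, is each cluster's summed target-cycle Cy3 intensity over its summed buffer-cycle Cy3 intensity.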
# 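Note: ATP exposure 15 min at 22 °C before imaging.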
row,Sequence,switch fluorescence ratio
1,ACTAGATTGA,1.01 ± 0.028
2,ATGGTCGGCA,0.985 ± 0.034
3,CAATTAGGGA,0.985 ± 0.017
4,ATTATATTGC,1.01 ± 0.026
5,TTATTTGCAT,0.994 ± 0.013
6,GTAACAGGGT,0.999 ± 0.023
7,GTTTAATCTT,0.9896 ± 0.0031
8,CGATAAATTA,0.9971 ± 0.0044
9,TGGTTGACGA,1.01 ± 0.14
10,TAAAAAAATA,0.971 ± 0.0079
11,TGCACGTTTT,1.09 ± 0.07
12,GATGGAAGGG,0.974 ± 0.023
13,CGCGTATTGT,0.999 ± 0.016
14,GTGTTTCCTT,1.02 ± 0.036
15,ACGATGGTTT,0.984 ± 0.04
16,TTGGGTAAAT,0.985 ± 0.031
17,CCTGTTCGGC,1.02 ± 0.038
18,GGCGCCTTTT,0.988 ± 0.033
19,ACGGCTGTGC,1.02 ± 0.013
20,ATATAAAGGA,1.01 ± 0.024
21,AATTAGGGCT,0.971 ± 0.026
22,GGGGGAGATA,1 ± 0.025
23,CCTTGTTATC,1.1 ± 0.1
24,GGTCTCCTTT,0.971 ± 0.018
25,GGGTTTTATC,0.999 ± 0.035

row,Sequence,switch fluorescence ratio
1,AAGGGTTTGC,0.974 ± 0.022
2,GGCATAGGTA,1.01 ± 0.012
3,TTTTCACAAT,1.17 ± 0.21
4,AATTTGTAAG,1.01 ± 0.023
5,GAAGGGGGAT,1.02 ± 0.051
6,TTCGAATATT,1.13 ± 0.26
7,CGGCGGCAG,1.03 ± 0.064
8,AATTTATTTT,0.991 ± 0.026
9,GGGCATGTAC,1.57 ± 0.15
10,TCATCTGTTG,1 ± 0.033
11,TATTGAGCTG,0.9775 ± 0.0087
12,ATTACTGGGG,0.99 ± 0.019
13,TGGTAAAAGG,0.991 ± 0.038
14,ACGCAGGTAT,1.04 ± 0.061
15,TTTGTTCTGG,1.49 ± 0.73
16,AGGTATCCAC,1.03 ± 0.035
17,TATTATGAGA,0.983 ± 0.026
18,TCGTGCGGTT,1.01 ± 0.032
19,ACTCGAGGGA,1.01 ± 0.011
20,GAGGTATGTG,0.997 ± 0.023
21,ATTGAGCGGA,1.0358 ± 0.001
22,ACAGAAGGTC,0.977 ± 0.015
23,TATCCATGGG,0.978 ± 0.03
24,AAAACGCGGT,1.2 ± 0.042
25,AGTAACCAAG,1.01 ± 0.037

row,Sequence,switch fluorescence ratio
1,GGGAGAGGGC,0.991 ± 0.013
2,CTTGGGGATG,0.997 ± 0.042
3,ACTTGGGGGA,0.9907 ± 0.0057
4,AACGTTATCT,1.04 ± 0.015
5,CATTTGAGCC,0.973 ± 0.013
6,TTGTCTAATT,1.007 ± 0.0081
7,ACAGTGGGAA,1.014 ± 0.0044
8,AGGCGGGGGG,1.02 ± 0.041
9,GCTTTTTGTA,0.981 ± 0.032
10,TGGTGATGGT,1.03 ± 0.058
11,TAGTTAGGAG,0.9945 ± 0.0081
12,GGGAAACAAA,0.96 ± 0.059
13,GGATATGGGT,0.966 ± 0.011
14,ATAGGGAGGG,1.012 ± 0.0048
15,ACCTTAGTAT,1.02 ± 0.022
16,GGATAAGAAT,1.02 ± 0.052
17,TAAAAAATAT,0.967 ± 0.043
18,TATTGATTTG,1.02 ± 0.019
19,CCGAGTTTTT,1.07 ± 0.086
20,ATTATGGGGA,0.995 ± 0.016
21,TTTGTTCCTT,1.01 ± 0.04
22,AGGGGCACTC,0.992 ± 0.028
23,AACAGCCACA,1.11 ± 0.028
24,GATTATGGCA,0.9752 ± 0.0066
25,TGAGGGATGC,0.968 ± 0.029

row,Sequence,switch fluorescence ratio
1,AGGCGGGGTG,1.04 ± 0.024
2,GCGGATAAGC,1.01 ± 0.039
3,GATGGTTTCC,1.02 ± 0.0017
4,TATTTTTCAT,1.01 ± 0.052
5,GGGTAAGTAT,0.958 ± 0.04
6,AATCAGTCTG,0.992 ± 0.013
7,AGATTACTGC,1.01 ± 0.023
8,ACTGGGGTCA,1 ± 0.03
9,GGGGAGAAGA,0.9662 ± 0.005
10,AGTGGGGCGT,1 ± 0.016
11,AGGGGACTTC,1.04 ± 0.015
12,CTCAACGTTC,1.088 ± 0.006
13,TATATATATG,0.955 ± 0.031
14,TTTGCACTGT,0.998 ± 0.055
15,GTGTTATGAG,0.995 ± 0.067
16,AAAAAGTCGC,0.961 ± 0.022
17,GGGGTAAGTT,0.989 ± 0.035
18,ATCTGGGGTT,1.04 ± 0.015
19,ATATGGGGGC,0.972 ± 0.059
20,TCGGAGAGGG,0.974 ± 0.037
21,AAAGTCTAGC,1.01 ± 0.019
22,AAGTATATTG,0.991 ± 0.025
23,AGAGAAAAAG,0.957 ± 0.042
24,ATTTCAGGGA,0.978 ± 0.024
25,GCAAGGGGTG,1.1 ± 0.065
